# From the supplement of paper PMC7877785
# ± gives the uncertainty stated by the source.
# Assay: self-splicing fitness, log relative to wild type (ln ratio); higher = more splicing; Tetrahymena group I intron in knt gene, E. coli kanamycin selection, DiMSum; sequences stand for … in CUCUCU…GGAGGGAAAAGUUAUCAGGCAUGCACCUGGUAGCUAGUCUUUAAACCAAUAGAUUGCAUCGGUUUAAAAGGCAAGACCGUCAAAUUGCGGGAAAGGGGUCAACAGCCGUUCAGUACCAAGUCUCAGGGGAAACUUUGAGAUGGCCUUGCAAAGGGUAUGGUAAUAAGCUGACGGACAUGGUCCUAACCACGCAGCCAAGUCCUAAGUCAACAGAUCUUCUGUUGAUAUGGAUGCAGUUCACAGACUAAAUGUCGGUCGGGGAAGAUGUAUUCUUCUCAUAAGAUAUAGUCGGACCUCUCCUUAAUGGGAGCUAGCGGAUGAAGUGAUGCAACACUGGAGCCGCUGGGAACUAAUUUGUAUGCGAAAGUAUAUUGAUUAGUUUUGGAGUACUCGUGGUCG
# Summary of the method: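 The eight P1ex-region nucleotides of an intron in the knt kanamycin-resistance gene on pET-22b(+) were all randomised and the library put into E. coli BL21(DE3). Six replicate transformations were grown overnight at 37°C or 30°C on LB agar with or without 25 μg/mL kanamycin, together with 100 μg/mL carbenicillin, 50 μM IPTG and 0.2% rhamnose. Colonies were pooled and amplicon-sequenced on an Illumina HiSeq 2500. Fitness from DiMSum is the error-weighted combination of wild-type-normalised replicate fold changes, kanamycin over none.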
Sequence,self-splicing fitness (ln) (30 °C),self-splicing fitness (ln) (37 °C)
UUCGAGCAAUAUUACGUGUU,-4.05 ± 0.25,-1.72 ± 0.18
UUGAAGCAAUAUUACGCCUU,-2.96 ± 0.13,-1.53 ± 0.14
GUCAAGCAAUAUUACGUGAG,-1.2 ± 0.054,-0.505 ± 0.067
UUCAAGCAAUAUUACGGCGA,0.0413 ± 0.081,0.263 ± 0.11
AGAUAGCAAUAUUACGAAGU,-3.27 ± 0.14,-1.83 ± 0.13
CCGCAGCAAUAUUACGGGAG,-3.26 ± 0.16,-3.06 ± 0.24
GGACAGCAAUAUUACGUAGU,-1.61 ± 0.059,-1.15 ± 0.085
AUCAAGCAAUAUUACGAGAA,-1.21 ± 0.49,-2.28 ± 0.28
AAGUAGCAAUAUUACGUAUG,-3.38 ± 0.22,-1.4 ± 0.19
UCACAGCAAUAUUACGCCAG,-1.6 ± 0.15,-0.668 ± 0.25
AAGUAGCAAUAUUACGAGGG,-3.71 ± 0.24,-3.29 ± 0.28
UACGAGCAAUAUUACGUUAA,-3.08 ± 0.26,-1.57 ± 0.14
CAUAAGCAAUAUUACGUGUG,-3.56 ± 0.15,-2.94 ± 0.17
GGAGAGCAAUAUUACGUAGG,-3.43 ± 0.25,-0.82 ± 0.25
AUAAAGCAAUAUUACGCGAA,-1.19 ± 0.088,-0.188 ± 0.1
CGAUAGCAAUAUUACGAGGU,-2.8 ± 0.22,-3.01 ± 0.34
GAGUAGCAAUAUUACGCCCA,-1.78 ± 0.39,-1.39 ± 0.24
UGGUAGCAAUAUUACGGCUG,-1.99 ± 0.15,-0.886 ± 0.26
GGCUAGCAAUAUUACGUAAU,-0.265 ± 0.1,0.283 ± 0.12

Sequence,self-splicing fitness (ln) (30 °C),self-splicing fitness (ln) (37 °C)
UCAAAGCAAUAUUACGAUCG,-0.659 ± 0.085,-0.141 ± 0.11
ACGUAGCAAUAUUACGAAUA,-2.32 ± 0.17,-1.46 ± 0.12
UGAAAGCAAUAUUACGUCAC,-3.83 ± 0.47,-2.2 ± 0.27
UCACAGCAAUAUUACGGGAC,-2.77 ± 0.21,-1.76 ± 0.18
UUACAGCAAUAUUACGCUGA,-3.22 ± 0.17,-2.55 ± 0.19
AGCGAGCAAUAUUACGGCCG,-2.6 ± 0.34,-1.72 ± 0.26
GUUGAGCAAUAUUACGUGUA,-3 ± 0.21,–
AAAUAGCAAUAUUACGCCAG,-2.53 ± 0.24,-2.09 ± 0.42
GACAAGCAAUAUUACGUUAC,-3.32 ± 0.15,-2.36 ± 0.17
UGGUAGCAAUAUUACGGUGU,-4.11 ± 0.31,-0.563 ± 0.13
CGGCAGCAAUAUUACGAUGC,-3.41 ± 0.29,-1.6 ± 0.32
GGCAAGCAAUAUUACGAAAC,-0.925 ± 0.13,-0.903 ± 0.16
CAUCAGCAAUAUUACGGGGC,-4 ± 0.16,-2.01 ± 0.15
GGAUAGCAAUAUUACGUUGU,-3.13 ± 0.2,-1.58 ± 0.15
UCAAAGCAAUAUUACGCCCC,-2.12 ± 0.39,-1.54 ± 0.37
GCCUAGCAAUAUUACGUUUU,-1.7 ± 0.097,-0.614 ± 0.12
UGGUAGCAAUAUUACGGGCA,-0.0931 ± 0.13,0.591 ± 0.13
ACAUAGCAAUAUUACGCGCA,-0.42 ± 0.076,-0.818 ± 0.088
